# Measurements: patent US20220281976A1 (Alector, published 2022)
# Positions count from the first letter of the chain named.
# T1: mouse CD33 Fc fusion protein (mouse, UniProt Q63994 18-240, limits assumed)
# T1 construct: also called mCD33-Fc
# T1 sequence: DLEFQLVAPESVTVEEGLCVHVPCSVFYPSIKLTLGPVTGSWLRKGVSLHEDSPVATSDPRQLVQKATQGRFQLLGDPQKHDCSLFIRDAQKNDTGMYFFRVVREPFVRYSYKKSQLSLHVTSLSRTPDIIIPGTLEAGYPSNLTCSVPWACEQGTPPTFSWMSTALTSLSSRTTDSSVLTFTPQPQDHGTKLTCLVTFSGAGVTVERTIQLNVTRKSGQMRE
# B1: C-1 (antibody, V domains shown)
# VH: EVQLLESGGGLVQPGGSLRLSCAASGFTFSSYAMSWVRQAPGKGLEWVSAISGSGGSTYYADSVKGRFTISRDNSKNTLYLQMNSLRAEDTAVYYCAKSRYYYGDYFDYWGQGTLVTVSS
# VL: EIVLTQSPATLSLSPGERATLSCRASQSVSSYLAWYQQKPGQAPRLLIYDASNRATGIPARFSGSGSGTDFTLTISSLEPEDFAVYYCQQYYFWPLTFGGGTKVEIK
# notes: full-length human IgG1
# B2: C-63 (antibody, V domains shown)
# VH: QVQLVQSGAEVKKPGSSVKVSCKASGGTFSSYAISWVRQAPGQGLEWMGSIIPIFGTANYAQKFQGRVTITADESTSTAYMELSSLRSEDTAVYYCARDLGGQYYGSHHYWGQGTLVTVSS
# VL: B1 VL with L13V, S30G, Y32N, D50G, N53T, D70E, E79Q, P80S, Y92N, F93A
# notes: human IgG1
# B3: C-36 (antibody, V domains shown)
# VH: EVQLVESGGGLVQPGGSLRLSCAASGFTFSSYWMSWVRQAPGKGLEWVANIKQDGSEKYYVDSVKGRFTISRDNAKNSLYLQMNSLRAEDTAVYYCARDGQYYPAYGMDVWGQGTTVTVSS
# VL: EIVMTQSPATLSVSPGERATLSCRASQSVSSNLAWYQQKPGQAPRLLIYGASTRATGIPARFSGSGSGTEFTLTISSLQSEDFAVYYCQQYFDLPTFGGGTKVEIK
# notes: human IgG1
# B4: C-13 (antibody, V domains shown)
# VH: EVQLVESGGGLVQPGGSLRLSCAASGFTFSSYWMSWVRQAPGKGLEWVANIKSDGSEKYYVDSVKGRFTISRDNAKNSLYLQMNSLRAEDTAVYYCARGPSYLASGAFDLWGRGTLVTVSS
# VL: EIVLTQSPATLSLSPGERATLSCRASQSVSSYLAWYQQKPGQAPRLLIYDASNRATGIPARFSGSGSGTDFTLTISSLEPEDFAVYYCQQAYVVPPRTFGGGTKVEIK
# notes: human IgG1
# B5: C-42 (antibody, V domains shown)
# VH: QLQLQESGPGLVKPSETLSLTCTVSGGSISSSSYYWGWIRQPPGKGLEWIGSIYYSGSTYYNPSLKSRVTISVDTSKNQFSLKLSSVTAADTAVYYCAREPIYRRGMDVWGQGTTVTVSS
# VL: EIVLTQSPATLSLSPGERATLSCRASQSVSSYLAWYQQKPGQAPRLLIYDASNRATGIPARFSGSGSGTDFTLTISSLEPEDFAVYYCQQFSNYPTFGGGTKVEIK
# notes: human IgG1
# B6: C-66 (antibody, V domains shown)
# VH: B5 VH with P101V, I102G, R104P, R105Y
# VL: DIQLTQSPSSLSASVGDRVTITCQASQDISNFLNWYQQKPGKAPKLLIYDASNLETGVPSRFSGSGSGTDFTFTISSLQPEDIATYYCQQYSDLPTFGGGTKVEIK
# notes: human IgG1
# B7: C-73 (antibody, V domains shown)
# VH: QVQLVESGGGVVQPGRSLRLSCAASGFTFSSYGMHWVRQAPGKGLEWVAVIWYDGSNKYYADSVKGRFTISRDNSKNTLYLQMNSLRAEDTAVYYCARGTNAYGTPRDFDLWGRGTLVTVSS
# VL: DIQMTQSPSSLSASVGDRVTITCRASQSISSYLNWYQQKPGKAPKLLIYAASSLQSGVPSRFSGSGSGTDFTLTISSLQPEDFATYYCQQLSDTPITFGGGTKVEIK
# notes: human IgG1
# B8: C-83 (antibody, V domains shown)
# VH: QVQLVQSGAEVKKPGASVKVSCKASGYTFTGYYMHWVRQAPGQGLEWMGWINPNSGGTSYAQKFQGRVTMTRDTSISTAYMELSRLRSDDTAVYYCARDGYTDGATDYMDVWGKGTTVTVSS
# VL: B7 VL with M4L, L11V, S28G, Y32W, N34A, L91A, S92Y, D93A, T94L, I96P
# notes: human IgG1
# B9: C-18 (antibody, V domains shown)
# VH: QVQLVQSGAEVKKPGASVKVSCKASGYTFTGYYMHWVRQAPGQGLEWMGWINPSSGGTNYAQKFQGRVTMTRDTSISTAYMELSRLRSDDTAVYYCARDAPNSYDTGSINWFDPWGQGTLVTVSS
# VL: B7 VL with L11V, S28G, Y32W, N34A, L91A, S92N, D93Y, T94H, I96L
# notes: human IgG1
# B10: C-19 (antibody, V domains shown)
# VH: QLQLQESGPGLVKPSETLSLTCTVSGGSISSSSYAWGWIRQPPGKGLEWIGSIYYSGSTYYNPSLKSRVTISVDTSKNQFSLKLSSVTAADTAVYYCARVGYTRPYGMDVWGQGTTVTVSS
# VL: DIQMTQSPSSVSASVGDRVTITCRASQGISSWLAWYQQKPGKAPKLLIYAASSLQSGVPSRFSGSGSGTDFTLTISSLQPEDFATYYCQQINAHPTFGGGTKVEIK
# notes: human IgG1
# B11: C-35 (antibody, V domains shown)
# VH: B10 VH with S52N, V100A, T103R, R104S, Y106S, M108F, V110Y, T116L
# VL: B10 VL with S53N, I91G
# notes: human IgG1
# B12: C-70 (antibody, V domains shown)
# VH: QVQLVESGGGVVQPGRSLRLSCAASGFTFSTYGMHWVRQAPGKGLEWVAVIWYDGSNKYYADSVKGRFTISRDNSKNTLYLQMNSLRAEDTAVYYCARGQHGTSRVDFDYWGQGTLVTVSS
# VL: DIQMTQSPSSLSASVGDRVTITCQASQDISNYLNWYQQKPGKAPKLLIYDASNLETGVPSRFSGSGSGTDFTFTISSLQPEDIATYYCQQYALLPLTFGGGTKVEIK
# notes: human IgG1
# Target: T2, human CD33 Fc fusion protein (human, UniProt P20138 18-259)
# T2 construct: also called hCD33-Fc; human CD33/Fc chimera (R&D Systems)
# T2 sequence (P20138 18-259 limits assumed): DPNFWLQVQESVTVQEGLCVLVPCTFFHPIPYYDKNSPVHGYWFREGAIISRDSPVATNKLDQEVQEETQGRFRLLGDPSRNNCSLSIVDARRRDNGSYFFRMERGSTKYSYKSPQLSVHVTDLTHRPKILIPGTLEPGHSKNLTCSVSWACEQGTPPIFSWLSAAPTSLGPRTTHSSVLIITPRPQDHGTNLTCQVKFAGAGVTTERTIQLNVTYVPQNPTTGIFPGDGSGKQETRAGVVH
# Test: RBC adhesion to plate-bound CD33-Fc; antibody 0.5 ug/ml;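 note: Plate-coated CD33-Fc preincubated 1 h with antibody, then red blood cells added for 1 h at room temperature, adherent cells lysed and quantified via peroxidase activity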
row,Percent RBC Binding to CD33,Binder
1,93.2%,B1
2,17.1%,B2
3,13.4%,B3
4,41.3%,B4
5,21.2%,B5
6,44%,B6
7,29.8%,B7
8,98.7%,B8
9,111%,B9
10,19.5%,B10
11,16.6%,B11
12,23%,B12

# Target: T3, human monomeric His tagged CD33 protein (human, UniProt P20138 18-259)
# T3 construct: also called hCD33-His
# T3 sequence (P20138 18-259 limits assumed): as above
# Test: ForteBio BLI or MSD-SET, IgG, monomeric antigen;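 note: BLI: antibodies captured on AHQ sensors, 100 nM antigen association 5 min, dissociation 5 min, 1:1 fit. MSD-SET: antigen fixed at 50 pM, antibody titrated, quadratic fit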
row,Kd,Binder
1,9.69 nM,B1
2,2.35 nM,B3
3,9.97 nM,B4
4,12.7 nM,B5
5,100 nM,B6
6,23.7 nM,B7
7,59.3 nM,B8
8,16.1 nM,B9
9,1.82 nM,B10
10,4.26 nM,B11
11,32.2 nM,B12

# Target: T1, mouse CD33 Fc fusion protein
# Test: ForteBio BLI or MSD-SET
row,binding result,Binder
1,no binding (tested: 100 nM),B1
2,no binding (tested: 100 nM),B2
3,no binding (tested: 100 nM),B3
4,no binding (tested: 100 nM),B4
5,no binding (tested: 100 nM),B5
6,no binding (tested: 100 nM),B6
7,no binding (tested: 100 nM),B7
8,no binding (tested: 100 nM),B8
9,no binding (tested: 100 nM),B9
10,no binding (tested: 100 nM),B10
11,no binding (tested: 100 nM),B11
12,no binding (tested: 100 nM),B12

# Target: T4, human CD33 (human, UniProt P20138 18-364)
# T4 sequence (P20138 18-364): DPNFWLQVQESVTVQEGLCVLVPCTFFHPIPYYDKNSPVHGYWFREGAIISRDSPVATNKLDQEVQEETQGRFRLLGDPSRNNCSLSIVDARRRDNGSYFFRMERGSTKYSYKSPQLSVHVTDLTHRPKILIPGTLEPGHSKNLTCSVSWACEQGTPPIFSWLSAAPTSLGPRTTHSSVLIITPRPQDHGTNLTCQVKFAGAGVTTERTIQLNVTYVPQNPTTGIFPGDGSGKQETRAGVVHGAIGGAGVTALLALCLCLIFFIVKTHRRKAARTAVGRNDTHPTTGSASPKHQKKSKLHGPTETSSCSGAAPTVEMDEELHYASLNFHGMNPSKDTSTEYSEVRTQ
# Test: cell-based or functional assay
"Percent CD33 Surface Expression, DC % CD33","Percent CD33 Surface Expression, Macrophage % CD33","Percent CD33 Surface Expression, Monocyte % CD33",Binder
80.9%,94.4%,100%,B1
56.8%,–,75.6%,B2
21.2%,36.3%,46.6%,B3
21.8%,63.1%,48%,B4
27.8%,52.2%,44.9%,B5
77.4%,–,59.9%,B6
22.9%,55.9%,24.9%,B7
79.6%,–,87.8%,B8
80%,–,84.8%,B9
11.6%,58.7%,28.2%,B10
18.7%,51.2%,31.9%,B11
47.5%,68.8%,53.9%,B12

# Target: T4, human CD33
# Test: flow cytometry, human primary macrophages;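 note: binding of CD33 antibodies at 10 µg/ml to human primary macrophages, 1 h on ice, detected with PE-labelled secondary antibody by flow cytometry, reported as MFI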
# Description: Initial characterization of CD33 antibodies involved determining their ability to bind CD33 expressed on a CHO cell line, on human primary monocytes, human primary macrophages, human primary dendritic cells, and on human primary T cells. Cells were harvested, plated at 10⁶/ml in a 96 well plate, and incubated in 100 ul PBS containing 2% FBS, 2 mM EDTA and 10 ug/ml Mab and Fc blocking reagent for 1 hour in ice. Cells were washed twice and incubated in 100 ul PBS containing 2% FBS, 2 mM EDTA and 5 ug/ml PE-conjugated secondary antibody for 30 minutes on ice. Cells were washed twice in cold PBS and analyze by flow cytometry on a BD FACS Canto. Data analysis and calculation of MFI values was performed with FlowJo (TreeStar) software version 10.0.7.
row,Macrophage MFI,Binder
1,924,B1
2,872,B2
3,853,B3
4,838,B4
5,617,B5
6,729,B6
7,573,B7
8,409,B8
9,981,B9
10,887,B10
11,920,B11
12,652,B12

# Target: T4, human CD33
# Test: flow cytometry, human primary T cells;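 note: binding of anti-CD33 antibodies at 10 ug/ml to human primary T cells, 1 h on ice, detected with PE-labelled secondary antibody, read as flow cytometry MFI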
row,T cell MFI,Binder
1,461,B1
2,28.8,B2
3,228,B3
4,205,B4
5,269,B5
6,772,B6
7,210,B7
8,80.6,B8
9,43.4,B9
10,470,B10
11,186,B11
12,192,B12

# Target: T2, human CD33 Fc fusion protein
# Test: ForteBio BLI or MSD-SET, IgG, avid;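 note: Anti-CD33 IgG affinity by BLI, IgG captured on AHQ sensors with antigen in solution and a one-to-one kinetic fit, or by MSD solution equilibrium titration with quadratic fit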
row,Kd,Binder
1,2.53 nM,B1
2,4.01 nM,B2

# Target: T4, human CD33
# Test: flow cytometry, human primary monocytes;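 note: binding of anti-CD33 antibodies at 10 ug/ml to human primary monocytes, 1 h on ice, detected by PE-labelled secondary antibody, flow cytometry readout as mean fluorescence intensity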
# Set-up: reference not given here
row,Monocyte MFI,Binder
1,177,B1
2,117,B2
3,144,B3
4,181,B4
5,74,B5
6,107,B6
7,94,B7
8,646,B8
9,189,B9
10,182,B10
11,160,B11
12,84,B12

# Target: T4, human CD33
# Test: flow cytometry, human primary dendritic cells;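 note: binding of anti-CD33 antibodies (10 ug/ml, 1 h on ice) to human primary dendritic cells, detected with a PE-labelled secondary antibody, reported as flow cytometry MFI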
row,DC MFI,Binder
1,1440,B1
2,1200,B2
3,1160,B3
4,1740,B4
5,1130,B5
6,892,B6
7,1050,B7
8,70,B8
9,1190,B9
10,1700,B10
11,1320,B11
12,938,B12

# Target: T2, human CD33 Fc fusion protein
# Test: RBC adhesion to plate-bound CD33-Fc; antibody 1.0 ug/ml;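 note: red blood cells adhering to plate-coated CD33-Fc after 1 h antibody pretreatment, then 1 h at room temperature, bound cells read as peroxidase activity after lysis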
# Description: Briefly, 5 ug/ml CD33-Fc was coated overnight at RT in 96 well Immunolon plates, then washed with PBS, blocked for one hour with binding buffer (PBS containing %0.25 BSA 1 mM CaCl₂). CD33 antibodies (0.5 ug/ml or 1.0 ug/ml) or Fabs (25 ug/ml) were bound for one hour at RT with gentle rocking. After removal of unbound antibody, red blood cells were added to each well at a concentration of 3.0×10⁶ cells per ml and incubated at RT for one hour. Unbound RBCs were then carefully washed off 3× with PBS, and water was added to each well for hypotonic lysis of bound RBCs. The plate was transferred to −80° C. for 10 minutes, followed by 37° C. for 15 minutes. Bound RBCs were detected by peroxidase activity, followed by 2N sulfuric acid to stop the reaction.
row,Percent RBC Binding to CD33,Binder
1,91.5%,B1
2,5.66%,B2
3,16.1%,B3
4,15.3%,B4
5,6.65%,B5
6,19.3%,B6
7,13.7%,B7
8,108%,B8
9,119%,B9
10,14.3%,B10
11,7.18%,B11
12,7.46%,B12
